Measured values from publication PMC8763920, “Unprotected peptide macrocyclization and stapling via a fluorine-thiol displacement reaction” (Nature Communications, 2022).
*1 amine or outer side, *2 acyl side, *3 side chain or, on linkers, in order; H or OH if unused. Where a SMILES comes first, the peptide text is derived from it. Bridges are numbered along the chain shown (N, C = ends). [ ]: non-standard residue; d: D form. Benzene(1,3-(CH2SCH2CO)2) = O=C(CSCc1cccc(CSCC(=O)[*:2])c1)[*:1]; X3 = O=C(CSCCCCCCCCSCC(=O)[*:2])[*:1]; X2 = O=C(CSCCCCCCCSCC(=O)[*:2])[*:1]; X1 = O=C(CSCCCCCCSCC(=O)[*:2])[*:1]; dDap = NC[C@@H](N)C(=O)O; Dap = NC[C@H](N)C(=O)O

assay: circular dichroism; conditions: water; pH ns; 25 °C; 70 uM

Compared with `CC[C@H](C)[C@@H]1NC(=O)[C@@H](NC(=O)[C@H](CCC(=O)O)NC(=O)[C@@H]2CCCN2C(=O)[C@H](CC(N)=O)NC(=O)[C@H](CCC(=O)O)NC(C)=O)CNC(=O)CSCCCCCCCCSCC(=O)NC[C@H](C(=O)N[C@@H](Cc2c[nH]cn2)C(=O)N[C@H](C(=O)N[C@@H](CCC(N)=O)C(=O)N[C@@H](CCCNC(=N)N)C(=O)N[C@H](C(=O)N[C@@H](CCSC)C(N)=O)C(C)C)C(C)C)NC(=O)[C@H](CC(=O)O)NC(=O)[C@H](CC(C)C)NC1=O` (Ac-ENPE[Dap]ILD[dDap]HVQRVM-NH2; linker 5-9 via X3), `CC[C@H](C)[C@@H]1NC(=O)[C@H](NC(=O)[C@H](CCC(=O)O)NC(=O)[C@@H]2CCCN2C(=O)[C@H](CC(N)=O)NC(=O)[C@H](CCC(=O)O)NC(C)=O)CNC(=O)CSCCCCCCCCSCC(=O)NC[C@@H](C(=O)N[C@@H](Cc2c[nH]cn2)C(=O)N[C@H](C(=O)N[C@@H](CCC(N)=O)C(=O)N[C@@H](CCCNC(=N)N)C(=O)N[C@H](C(=O)N[C@@H](CCSC)C(N)=O)C(C)C)C(C)C)NC(=O)[C@H](CC(=O)O)NC(=O)[C@H](CC(C)C)NC1=O` (Ac-ENPE[dDap]ILD[Dap]HVQRVM-NH2; linker 5-9 via X3) is lower in helicity: 14% for the first, 5% for the second.

Compared with `CC[C@H](C)[C@@H]1NC(=O)[C@H](NC(=O)[C@H](CCC(=O)O)NC(=O)[C@@H]2CCCN2C(=O)[C@H](CC(N)=O)NC(=O)[C@H](CCC(=O)O)NC(C)=O)CNC(=O)CSCCCCCCCSCC(=O)NC[C@H](C(=O)N[C@@H](Cc2c[nH]cn2)C(=O)N[C@H](C(=O)N[C@@H](CCC(N)=O)C(=O)N[C@@H](CCCNC(=N)N)C(=O)N[C@H](C(=O)N[C@@H](CCSC)C(N)=O)C(C)C)C(C)C)NC(=O)[C@H](CC(=O)O)NC(=O)[C@H](CC(C)C)NC1=O` (Ac-ENPE[dDap]ILD[dDap]HVQRVM-NH2; linker 5-9 via X2), `CC[C@H](C)[C@@H]1NC(=O)[C@@H](NC(=O)[C@H](CCC(=O)O)NC(=O)[C@@H]2CCCN2C(=O)[C@H](CC(N)=O)NC(=O)[C@H](CCC(=O)O)NC(C)=O)CNC(=O)CSCCCCCCCSCC(=O)NC[C@H](C(=O)N[C@@H](Cc2c[nH]cn2)C(=O)N[C@H](C(=O)N[C@@H](CCC(N)=O)C(=O)N[C@@H](CCCNC(=N)N)C(=O)N[C@H](C(=O)N[C@@H](CCSC)C(N)=O)C(C)C)C(C)C)NC(=O)[C@H](CC(=O)O)NC(=O)[C@H](CC(C)C)NC1=O` (Ac-ENPE[Dap]ILD[dDap]HVQRVM-NH2; linker 5-9 via X2) is lower in helicity: 31% for the first, 25% for the second.

Compared with `CC[C@H](C)[C@@H]1NC(=O)[C@H](NC(=O)[C@H](CCC(=O)O)NC(=O)[C@@H]2CCCN2C(=O)[C@H](CC(N)=O)NC(=O)[C@H](CCC(=O)O)NC(C)=O)CNC(=O)CSCc2ccc(cc2)CSCC(=O)NC[C@H](C(=O)N[C@@H](Cc2c[nH]cn2)C(=O)N[C@H](C(=O)N[C@@H](CCC(N)=O)C(=O)N[C@@H](CCCNC(=N)N)C(=O)N[C@H](C(=O)N[C@@H](CCSC)C(N)=O)C(C)C)C(C)C)NC(=O)[C@H](CC(=O)O)NC(=O)[C@H](CC(C)C)NC1=O`, `CC[C@H](C)[C@@H]1NC(=O)[C@@H](NC(=O)[C@H](CCC(=O)O)NC(=O)[C@@H]2CCCN2C(=O)[C@H](CC(N)=O)NC(=O)[C@H](CCC(=O)O)NC(C)=O)CNC(=O)CSCc2ccc(cc2)CSCC(=O)NC[C@@H](C(=O)N[C@@H](Cc2c[nH]cn2)C(=O)N[C@H](C(=O)N[C@@H](CCC(N)=O)C(=O)N[C@@H](CCCNC(=N)N)C(=O)N[C@H](C(=O)N[C@@H](CCSC)C(N)=O)C(C)C)C(C)C)NC(=O)[C@H](CC(=O)O)NC(=O)[C@H](CC(C)C)NC1=O` is lower in helicity: 19% for the first, 17% for the second.

Compared with `CC(=O)N[C@@H](CCC(N)=O)C(=O)N[C@@H](CO)C(=O)N[C@@H](CCC(N)=O)C(=O)N[C@@H](CCC(N)=O)C(=O)N[C@H](C(=O)N[C@@H](Cc1ccccc1)C(=O)N[C@H]1CNC(=O)CSCCCCCCCCSCC(=O)NC[C@H](C(=O)N[C@@H](CCC(N)=O)C(=O)N[C@@H](CC(N)=O)C(N)=O)NC(=O)[C@H](CC(C)C)NC(=O)[C@H](CC(C)C)NC(=O)[C@H](CCCNC(=N)N)NC(=O)[C@H](Cc2c[nH]c3ccccc23)NC(=O)[C@H](CC(C)C)NC(=O)[C@H](CC(N)=O)NC1=O)[C@@H](C)O`, `CC(=O)N[C@@H](CCC(N)=O)C(=O)N[C@@H](CO)C(=O)N[C@@H](CCC(N)=O)C(=O)N[C@@H](CCC(N)=O)C(=O)N[C@H](C(=O)N[C@@H](Cc1ccccc1)C(=O)N[C@H]1CNC(=O)CSCCCCCCCSCC(=O)NC[C@H](C(=O)N[C@@H](CCC(N)=O)C(=O)N[C@@H](CC(N)=O)C(N)=O)NC(=O)[C@H](CC(C)C)NC(=O)[C@H](CC(C)C)NC(=O)[C@H](CCCNC(=N)N)NC(=O)[C@H](Cc2c[nH]c3ccccc23)NC(=O)[C@H](CC(C)C)NC(=O)[C@H](CC(N)=O)NC1=O)[C@@H](C)O` is higher in helicity: 37% for the first, 40% for the second.

Compared with `CC[C@H](C)[C@@H]1NC(=O)[C@H](NC(=O)[C@H](CCC(=O)O)NC(=O)[C@@H]2CCCN2C(=O)[C@H](CC(N)=O)NC(=O)[C@H](CCC(=O)O)NC(C)=O)CNC(=O)CSCc2cccc(c2)CSCC(=O)NC[C@H](C(=O)N[C@@H](Cc2c[nH]cn2)C(=O)N[C@H](C(=O)N[C@@H](CCC(N)=O)C(=O)N[C@@H](CCCNC(=N)N)C(=O)N[C@H](C(=O)N[C@@H](CCSC)C(N)=O)C(C)C)C(C)C)NC(=O)[C@H](CC(=O)O)NC(=O)[C@H](CC(C)C)NC1=O`, `CC[C@H](C)[C@@H]1NC(=O)[C@@H](NC(=O)[C@H](CCC(=O)O)NC(=O)[C@@H]2CCCN2C(=O)[C@H](CC(N)=O)NC(=O)[C@H](CCC(=O)O)NC(C)=O)CNC(=O)CSCc2cccc(c2)CSCC(=O)NC[C@H](C(=O)N[C@@H](Cc2c[nH]cn2)C(=O)N[C@H](C(=O)N[C@@H](CCC(N)=O)C(=O)N[C@@H](CCCNC(=N)N)C(=O)N[C@H](C(=O)N[C@@H](CCSC)C(N)=O)C(C)C)C(C)C)NC(=O)[C@H](CC(=O)O)NC(=O)[C@H](CC(C)C)NC1=O` is higher in helicity: 13% for the first, 44% for the second.

First: CC[C@H](C)[C@@H]1NC(=O)[C@@H](NC(=O)[C@H](CCC(=O)O)NC(=O)[C@@H]2CCCN2C(=O)[C@H](CC(N)=O)NC(=O)[C@H](CCC(=O)O)NC(C)=O)CNC(=O)CSCCCCCCSCC(=O)NC[C@@H](C(=O)N[C@@H](Cc2c[nH]cn2)C(=O)N[C@H](C(=O)N[C@@H](CCC(N)=O)C(=O)N[C@@H](CCCNC(=N)N)C(=O)N[C@H](C(=O)N[C@@H](CCSC)C(N)=O)C(C)C)C(C)C)NC(=O)[C@H](CC(=O)O)NC(=O)[C@H](CC(C)C)NC1=O (Ac-ENPE[Dap]ILD[Dap]HVQRVM-NH2; linker 5-9 via X1)
Second: CC[C@H](C)[C@@H]1NC(=O)[C@H](NC(=O)[C@H](CCC(=O)O)NC(=O)[C@@H]2CCCN2C(=O)[C@H](CC(N)=O)NC(=O)[C@H](CCC(=O)O)NC(C)=O)CNC(=O)CSCCCCCCSCC(=O)NC[C@H](C(=O)N[C@@H](Cc2c[nH]cn2)C(=O)N[C@H](C(=O)N[C@@H](CCC(N)=O)C(=O)N[C@@H](CCCNC(=N)N)C(=O)N[C@H](C(=O)N[C@@H](CCSC)C(N)=O)C(C)C)C(C)C)NC(=O)[C@H](CC(=O)O)NC(=O)[C@H](CC(C)C)NC1=O (Ac-ENPE[dDap]ILD[dDap]HVQRVM-NH2; linker 5-9 via X1)
The helicity of the first is higher: 29% for the first, 28% for the second.

Compared with `CC(=O)N[C@@H](CCC(N)=O)C(=O)N[C@@H](CO)C(=O)N[C@@H](CCC(N)=O)C(=O)N[C@@H](CCC(N)=O)C(=O)N[C@H](C(=O)N[C@@H](Cc1ccccc1)C(=O)N[C@H]1CNC(=O)CSCc2ccc(cc2)-c2ccc(cc2)CSCC(=O)NC[C@@H](C(=O)N[C@@H](CCC(N)=O)C(=O)N[C@@H](CC(N)=O)C(N)=O)NC(=O)[C@H](CC(C)C)NC(=O)[C@H](CC(C)C)NC(=O)[C@H](CCCNC(=N)N)NC(=O)[C@H](Cc2c[nH]c3ccccc23)NC(=O)[C@H](CC(C)C)NC(=O)[C@H](CC(N)=O)NC1=O)[C@@H](C)O`, `CC(=O)N[C@@H](CCC(N)=O)C(=O)N[C@@H](CO)C(=O)N[C@@H](CCC(N)=O)C(=O)N[C@@H](CCC(N)=O)C(=O)N[C@H](C(=O)N[C@@H](Cc1ccccc1)C(=O)N[C@H]1CNC(=O)CSCCCCCCCSCC(=O)NC[C@@H](C(=O)N[C@@H](CCC(N)=O)C(=O)N[C@@H](CC(N)=O)C(N)=O)NC(=O)[C@H](CC(C)C)NC(=O)[C@H](CC(C)C)NC(=O)[C@H](CCCNC(=N)N)NC(=O)[C@H](Cc2c[nH]c3ccccc23)NC(=O)[C@H](CC(C)C)NC(=O)[C@H](CC(N)=O)NC1=O)[C@@H](C)O` is higher in helicity: 16% for the first, 36% for the second.

First: CC[C@H](C)[C@@H]1NC(=O)[C@H](NC(=O)[C@H](CCC(=O)O)NC(=O)[C@@H]2CCCN2C(=O)[C@H](CC(N)=O)NC(=O)[C@H](CCC(=O)O)NC(C)=O)CNC(=O)CSCc2cccc(c2)CSCC(=O)NC[C@@H](C(=O)N[C@@H](Cc2c[nH]cn2)C(=O)N[C@H](C(=O)N[C@@H](CCC(N)=O)C(=O)N[C@@H](CCCNC(=N)N)C(=O)N[C@H](C(=O)N[C@@H](CCSC)C(N)=O)C(C)C)C(C)C)NC(=O)[C@H](CC(=O)O)NC(=O)[C@H](CC(C)C)NC1=O
Second: CC[C@H](C)[C@@H]1NC(=O)[C@@H](NC(=O)[C@H](CCC(=O)O)NC(=O)[C@@H]2CCCN2C(=O)[C@H](CC(N)=O)NC(=O)[C@H](CCC(=O)O)NC(C)=O)CNC(=O)CSCc2cccc(c2)CSCC(=O)NC[C@@H](C(=O)N[C@@H](Cc2c[nH]cn2)C(=O)N[C@H](C(=O)N[C@@H](CCC(N)=O)C(=O)N[C@@H](CCCNC(=N)N)C(=O)N[C@H](C(=O)N[C@@H](CCSC)C(N)=O)C(C)C)C(C)C)NC(=O)[C@H](CC(=O)O)NC(=O)[C@H](CC(C)C)NC1=O
The helicity of the first is lower: 8% for the first, 46% for the second.

Going from `CC[C@H](C)[C@@H]1NC(=O)[C@H](NC(=O)[C@@H](N)CCC(=O)O)CNC(=O)CSCc2cccc(c2)CSCC(=O)NC[C@@H](C(=O)N[C@@H](Cc2c[nH]cn2)C(=O)O)NC(=O)[C@H](CC(=O)O)NC(=O)[C@H](CC(C)C)NC1=O` (H-E[dDap]ILD[Dap]H-OH; linker 2-6 via Benzene(1,3-(CH2SCH2CO)2)) to `CC[C@H](C)[C@@H]1NC(=O)[C@@H](NC(=O)[C@@H](N)CCC(=O)O)CNC(=O)CSCc2cccc(c2)CSCC(=O)NC[C@@H](C(=O)N[C@@H](Cc2c[nH]cn2)C(=O)O)NC(=O)[C@H](CC(=O)O)NC(=O)[C@H](CC(C)C)NC1=O` (H-E[Dap]ILD[Dap]H-OH; linker 2-6 via Benzene(1,3-(CH2SCH2CO)2)), the helicity rises from 13% to 41%.

Work on `CC[C@H](C)[C@@H]1NC(=O)[C@@H](NC(=O)[C@H](CCC(=O)O)NC(=O)[C@@H]2CCCN2C(=O)[C@H](CC(N)=O)NC(=O)[C@H](CCC(=O)O)NC(C)=O)CNC(=O)CSCCCCCCCSCC(=O)NC[C@@H](C(=O)N[C@@H](Cc2c[nH]cn2)C(=O)N[C@H](C(=O)N[C@@H](CCC(N)=O)C(=O)N[C@@H](CCCNC(=N)N)C(=O)N[C@H](C(=O)N[C@@H](CCSC)C(N)=O)C(C)C)C(C)C)NC(=O)[C@H](CC(=O)O)NC(=O)[C@H](CC(C)C)NC1=O` (Ac-ENPE[Dap]ILD[Dap]HVQRVM-NH2; linker 5-9 via X2) yielded a helicity of 18%.
